Among the data in article PMC10786891, “Massively parallel profiling of RNA-targeting CRISPR-Cas13d” are Kd values, retold here.

To fix the notation:
T1: EsCas13d, nuclease-dead (Eubacterium siraeum, UniProt B0MS50, R295A;H300A;R849A;H854A)
T1 sequence: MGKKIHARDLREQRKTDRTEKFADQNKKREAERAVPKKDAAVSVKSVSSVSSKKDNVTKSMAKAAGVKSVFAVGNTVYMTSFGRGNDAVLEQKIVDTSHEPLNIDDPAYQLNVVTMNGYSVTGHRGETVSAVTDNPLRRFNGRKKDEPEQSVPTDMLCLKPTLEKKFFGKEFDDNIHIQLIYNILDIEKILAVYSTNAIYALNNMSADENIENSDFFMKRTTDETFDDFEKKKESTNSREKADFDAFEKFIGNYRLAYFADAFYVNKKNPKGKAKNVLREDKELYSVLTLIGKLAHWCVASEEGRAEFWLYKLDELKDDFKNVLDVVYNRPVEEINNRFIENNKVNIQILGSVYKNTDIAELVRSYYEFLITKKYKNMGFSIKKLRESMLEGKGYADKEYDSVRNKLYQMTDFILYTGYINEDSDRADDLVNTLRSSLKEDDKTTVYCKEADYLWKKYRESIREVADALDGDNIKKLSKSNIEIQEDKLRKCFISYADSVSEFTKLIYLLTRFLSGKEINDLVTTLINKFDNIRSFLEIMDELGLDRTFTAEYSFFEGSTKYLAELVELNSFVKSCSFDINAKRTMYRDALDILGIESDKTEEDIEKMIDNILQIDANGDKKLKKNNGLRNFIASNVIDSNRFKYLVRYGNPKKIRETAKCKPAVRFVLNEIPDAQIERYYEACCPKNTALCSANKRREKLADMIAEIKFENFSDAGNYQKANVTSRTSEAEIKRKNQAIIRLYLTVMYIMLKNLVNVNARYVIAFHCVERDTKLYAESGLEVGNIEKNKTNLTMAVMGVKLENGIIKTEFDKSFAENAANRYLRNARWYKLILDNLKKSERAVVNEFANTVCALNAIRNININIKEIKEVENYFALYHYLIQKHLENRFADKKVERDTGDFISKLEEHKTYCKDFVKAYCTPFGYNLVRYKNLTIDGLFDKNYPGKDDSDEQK

B1: target 1 insG 3' of 3 (mixed)
RNA 1: CACCCGUGCAAAAAUGCAGGGGUCUAAAACUGAGCGGAUAACCUCUCUAUGG
RNA 2: GGGAAUGGAUCCACAUCUACGAAUUCGUACCAUAGAGAGGUUAUCCGCUGCACCGAGAUCGGAAGAGCACACGU
B2: target 1 G5C,C22U (mixed)
RNA 1: B1 RNA 1
RNA 2: GGGAAUGGAUCCACAUCUACGAAUUCGUAUCAUAGAGAGGUUAUCCCCUCACCGAGAUCGGAAGAGCACACGU
B3: target 1 insG 3' of 19,insG 3' of 3 (mixed)
RNA 1: B1 RNA 1
RNA 2: GGGAAUGGAUCCACAUCUACGAAUUCGUACCAUGAGAGAGGUUAUCCGCUGCACCGAGAUCGGAAGAGCACACGU
B4: target 3 U2C,C6U (mixed)
RNA 1: CACCCGUGCAAAAUUGCAGGGGUCUAAAACGACCUGAAUAUUUCAGAUCAAA
RNA 2: GGGAAUGGAUCCACAUCUACGAAUUCGUUUUUGAUCUGAAAUAUUUAGGCCUGCAGAUCGGAAGAGCACACGU
B5: target 3 del1,del22 (mixed)
RNA 1: B4 RNA 1
RNA 2: GGGAAUGGAUCCACAUCUACGAAUUCGUUUUGAUCUGAAAUAUUCAGGUUGCAGAUCGGAAGAGCACACGU
B6: target 3 insU 3' of 16 (mixed)
RNA 1: B4 RNA 1
RNA 2: GGGAAUGGAUCCACAUCUACGAAUUCGUUUUUGAUCUUGAAAUAUUCAGGUCUGCAGAUCGGAAGAGCACACGU
B7: target 3 insA 3' of 7,insU 3' of 4 (mixed)
RNA 1: B4 RNA 1
RNA 2: GGGAAUGGAUCCACAUCUACGAAUUCGUUUUUGAUCUGAAAUAUUACAGUGUCUGCAGAUCGGAAGAGCACACGU
B8: target 3 insC 3' of 3,insU 3' of 1 (mixed)
RNA 1: B4 RNA 1
RNA 2: B7 RNA 2 with A46C, C47A, A48G, U50C, G51U, U52C, C53U
B9: target 3 G4A,U22A (mixed)
RNA 1: B4 RNA 1
RNA 2: B4 RNA 2 with U30A, U46C, G48A, C50U
B10: target 3 insA 3' of 22,insU 3' of 22 (mixed)
RNA 1: B4 RNA 1
RNA 2: GGGAAUGGAUCCACAUCUACGAAUUCGUUUAUUUGAUCUGAAAUAUUCAGGUCUGCAGAUCGGAAGAGCACACGU
B11: target 3 G4U,G19U (mixed)
RNA 1: B4 RNA 1
RNA 2: B4 RNA 2 with G33U, U46C, G48U, C50U
B12: target 3 A5C,U7A (mixed)
RNA 1: B4 RNA 1
RNA 2: B4 RNA 2 with U45A, U46C, A47C, C50U
B13: target 3 A12G,U21A (mixed)
RNA 1: B4 RNA 1
RNA 2: B4 RNA 2 with U31A, A40G, U46C, C50U
B14: target 3 U2G,U8A (mixed)
RNA 1: B4 RNA 1
RNA 2: B4 RNA 2 with U44A, U46C, C50G
B15: target 3 insC 3' of 3,insA 3' of 1 (mixed)
RNA 1: B4 RNA 1
RNA 2: B7 RNA 2 with A46C, C47A, A48G, U50C, G51U, U52C, C53A
B16: target 3 C6U,A18G (mixed)
RNA 1: B4 RNA 1
RNA 2: B4 RNA 2 with A34G, C50U
B17: target 3 G4A,U7G (mixed)
RNA 1: B4 RNA 1
RNA 2: B4 RNA 2 with U45G, U46C, G48A, C50U
B18: target 3 insA 3' of 6,insA 3' of 1 (mixed)
RNA 1: B4 RNA 1
RNA 2: B7 RNA 2 with A46C, C47A, U50G, G51U, U52C, C53A
B19: target 3 insA 3' of 8,insU 3' of 5 (mixed)
RNA 1: B4 RNA 1
RNA 2: B7 RNA 2 with U45A, A46U, G49U, U50G
B20: target 3 insA 3' of 21,insC 3' of 21 (mixed)
RNA 1: B4 RNA 1
RNA 2: B10 RNA 2 with A31U, U32A, U33C
B21: target 3 insC 3' of 3 (mixed)
RNA 1: B4 RNA 1
RNA 2: B6 RNA 2 with U38G, G39A, A42U, U43A, A44U, U46C, C47A, A48G, G50C
B22: target 3 insU 3' of 11,insC 3' of 3 (mixed)
RNA 1: B4 RNA 1
RNA 2: B7 RNA 2 with A43U, U44A, A46U, U50G, G51C
B23: target 3 insU 3' of 11,insU 3' of 6 (mixed)
RNA 1: B4 RNA 1
RNA 2: B7 RNA 2 with A43U, U44A, A46U, A48U, G49A, U50G
B24: target 3 insA 3' of 6,insG 3' of 1 (mixed)
RNA 1: B4 RNA 1
RNA 2: B7 RNA 2 with A46C, C47A, U50G, G51U, U52C, C53G
B25: target 3 insA 3' of 15,insA 3' of 2 (mixed)
RNA 1: B4 RNA 1
RNA 2: B7 RNA 2 with G38A, A39G, U42A, A43U, U44A, A46U, U50G, G51U, U52A
B26: target 3 insC 3' of 3,insG 3' of 1 (mixed)
RNA 1: B4 RNA 1
RNA 2: B7 RNA 2 with A46C, C47A, A48G, U50C, G51U, U52C, C53G
B27: target 3 insC 3' of 12,insU 3' of 4 (mixed)
RNA 1: B4 RNA 1
RNA 2: B7 RNA 2 with A41C, U42A, A43U, U44A, A46U
B28: target 3 C6G,U22C (mixed)
RNA 1: B4 RNA 1
RNA 2: B4 RNA 2 with U30C, U46G, C50U
B29: target 3 insG 3' of 5,insC 3' of 4 (mixed)
RNA 1: B4 RNA 1
RNA 2: B7 RNA 2 with A46C, C47A, A48G, U50C
B30: target 3 insG 3' of 7,insC 3' of 2 (mixed)
RNA 1: B4 RNA 1
RNA 2: B7 RNA 2 with A46G, U50G, G51U, U52C

Changes are numbered by the printed parent chain. In names and notes the source's numbering stands.

The data set addresses T1, EsCas13d, nuclease-dead. Put plainly: crRNA (strand 1, pre-loaded); Mg2+; 40 mM Tris-HCl pH 7.5, 150 mM NaCl, 6 mM MgCl2, 1 mM DTT, 0.1% Tween-20, 0.2 mg/ml BSA; 25 C; 10 min per concentration, then washed. To be noted: tags: His6-TwinStrep-SUMO cleaved; N-terminal SNAP kept (SNAP-Surface 488); label: 3' end held by stalled T7 RNA polymerase.
For B1, the Kd was 7.3 ± 0.6 nM.

For the molecule B2, binding was characterised by a dissociation constant (Kd) of 22.6 ± 2.9 nM.

For B3, binding was characterised by a dissociation constant (Kd) of 41 ± 2.4 nM.

The molecule B4 returned a Kd of 52.5 ± 7 nM.

For B5, the Kd worked out at 29 ± 6 nM.

Regarding B6, the Kd came out at 64 ± 8.5 nM.

With B7, the affinity, expressed as Kd, was 12.7 ± 1.2 nM.

Turning to B8, binding was put at a Kd of 46 ± 6 nM.

Molecule B9 registered a dissociation constant (Kd) of 5.71 ± 0.47 nM.

In turn, B10 gave a Kd of 14.6 ± 1.45 nM.

Take B11: binding was characterised by a dissociation constant (Kd) of 77.5 ± 10 nM.

The molecule B12 came in with a Kd of 77.5 ± 13.5 nM.

Regarding B13, the dissociation constant Kd is 97.5 ± 47 nM.

The molecule B14 returned a dissociation constant Kd of 21.6 ± 3.55 nM.

As for B15, binding was characterised by a dissociation constant (Kd) of 83 ± 17 nM.

For the molecule B16, the dissociation constant Kd came to 20.3 ± 2.65 nM.

For B17, the dissociation constant (Kd) came to 30.2 ± 3.35 nM.

On to B18, for which the Kd amounted to 53 ± 18 nM.

B19 came in with a dissociation constant (Kd) of 33.9 ± 3.75 nM.

Molecule B20 yielded a dissociation constant (Kd) of 47 ± 11.5 nM.

For B21, the dissociation constant Kd came to 19.4 ± 2.05 nM.

B22 came in with a dissociation constant Kd of 58 ± 9.5 nM.

As to B23, the Kd stood at 95 ± 14.5 nM.

Consider B24, for which the equilibrium dissociation constant (Kd) was 32 ± 11 nM.

As for B25, the dissociation constant (Kd) was roughly 64 nM.

Turning to B26, the equilibrium dissociation constant (Kd) is 27.1 ± 7.05 nM.

For B27, the equilibrium dissociation constant (Kd) was roughly 64.5 nM.

B28 displayed a Kd of 36.5 ± 6 nM.

In the case of B29, binding was characterised by a dissociation constant (Kd) of 7.65 ± 1.2 nM.

In turn, B30 gave a Kd of 88 ± 17.5 nM.

What is called Kd is the free concentration of one partner at which half of the binding sites on the other are occupied at equilibrium, for simple one-to-one binding.
